Data reported in publication PMC9798946, “Properties and Activity of Peptide Derivatives of ACE2 Cellular Receptor and Their Interaction with SARS-CoV-2 S Protein Receptor-Binding Domain” (Doklady. Biochemistry and Biophysics, 2022).
Where two headings read alike, the source gives them in different places.

Tests used:
[1] = Degree of α-helicity by circular dichroism (CD) spectroscopy; assay type: physicochemical
[2] = molecular target: T1, SARS-CoV-2 S protein RBD RBD (Severe acute respiratory syndrome coronavirus 2), P0DTC2; conditions: modification not given
[3] = molecular target: T1, SARS-CoV-2 S protein RBD RBD (Severe …); conditions: modification not given; remark: listed apart in the source
[4] = molecular target: T1, SARS-CoV-2 S protein RBD RBD (Severe …); conditions: modification not given; remark: listed apart in the source
[5] = molecular target: T1, SARS-CoV-2 S protein RBD RBD (Severe …); conditions: modification not given; remark: listed apart in the source
[6] = molecular target: T1, SARS-CoV-2 S protein RBD RBD (Severe …); conditions: modification not given; remark: listed apart in the source

With `CC[C@H](C)[C@H](N)C(=O)N[C@@H](CCC(=O)O)C(=O)N[C@@H](CCC(=O)O)C(=O)N[C@@H](CCC(N)=O)C(=O)N[C@@H](C)C(=O)N[C@@H](CCCCN)C(=O)N[C@H](C(=O)N[C@@H](Cc1ccccc1)C(=O)N[C@@H](CC(C)C)C(=O)N[C@@H](CC(=O)O)C(=O)N[C@@H](CCCCNC(=O)CCS)C(=O)N[C@@H](Cc1ccccc1)C(=O)N[C@@H](CC(N)=O)C(=O)N[C@@H](Cc1c[nH]cn1)C(=O)N[C@@H](CCC(N)=O)C(=O)N[C@@H](C)C(=O)N[C@@H](CCC(=O)O)C(=O)N[C@@H](CC(=O)O)C(=O)N[C@@H](CC(C)C)C(=O)N[C@@H](Cc1ccccc1)C(=O)N[C@@H](Cc1ccc(O)cc1)C(=O)N[C@H](CCCCN)C(=O)O)[C@@H](C)O` [h1–Mpa] the “α-Helicity, H2O” value ([1]; solvent H2O) was 6.0%, the “α-Helicity, TFE” value ([1]; solvent trifluoroethanol (TFE)) was 85.3% and the “α-Helicity, WEM” value ([1]; solvent water–ethanol mixture (WEM)) was 37.8%.

Molecule DKWSAFLKEQSTIAQMYPLQECI [h2 (67-89)] has a Kd [2] of 2580 nM and a Kd [3] of 40000 nM.

Work on IEEQAKTFLDKFNHQAEDLFYK [h1-Mpa (21-42)] yielded a Kd [4] of 1070 nM.

Work on NCGDKWSAFLKEQSTLAQMYPLQE [900h2 (64-87)] yielded a Kd [5] of 7220 nM and a Kd [6] of 1700 nM.
